Results as given in patent US20240092919A1 (Ablynx, published 2024).
Numbering of substitutions follows the chain as printed. Numbers in names are those of the source. One block for each binder: values may come before it.

What was measured:
[1] = target: T1, Human T cell receptor on human primary T cells (human, UniProt P01848 1-140; P01850 1-176); assay: cell-based or functional assay
T1 TCR alpha (looked up): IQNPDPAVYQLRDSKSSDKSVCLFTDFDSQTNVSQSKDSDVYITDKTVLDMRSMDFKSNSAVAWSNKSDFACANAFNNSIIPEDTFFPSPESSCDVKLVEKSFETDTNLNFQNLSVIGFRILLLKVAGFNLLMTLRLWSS
T1 TCR beta (looked up): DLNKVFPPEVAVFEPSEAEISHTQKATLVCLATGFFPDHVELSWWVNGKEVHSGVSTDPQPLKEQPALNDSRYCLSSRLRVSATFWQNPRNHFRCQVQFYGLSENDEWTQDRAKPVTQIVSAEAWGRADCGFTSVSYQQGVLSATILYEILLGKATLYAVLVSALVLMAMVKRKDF

[2] = target: T2, Cynomolgus T cell receptor on cynomolgus primary T cells (cynomolgus monkey); assay: cell-based or functional assay
[3] = target: T2, Cynomolgus T cell receptor on …; assay: cell-based or functional assay; remark: listed apart in the source
[4] = target: T1, Human T cell receptor on human primary …; assay: cell-based or functional assay
[5] = target: T1, Human T cell receptor on human primary …; assay: cell-based or functional assay
[6] = target: T2, Cynomolgus T cell receptor on …; assay: cell-based or functional assay; remark: listed apart in the source
[7] = target: T1, Human T cell receptor on human primary …; assay: cell-based or functional assay
[8] = target: T2, Cynomolgus T cell receptor on …; assay: cell-based or functional assay; remark: listed apart in the source
[9] = target: T3, Cynomolgus TCR(AEA41865/AEA41866)-zipper protein (cynomolgus monkey); assay: SPR, ProteOn XPR36, 25 C, immobilised TCR-zipper
T3 construct: also called cyTCR-zipper protein; cynoTCR zipper
Excerpt: HuTCR-zipper or cyTCR-zipper protein was immobilized on a GLC sensor chip (between 100-200 RU) via amine coupling chemistry, using EDC/NHS for activation of the carboxyl groups on the chip surface (running buffer: HBS-EP+, pH7.4). […] Processed sensorgrams were fitted with the Langmuir model (1:1 interaction) using ProteOn Manager 3.1.0 (Version 3.1.0.6) software.
T3 TCR alpha: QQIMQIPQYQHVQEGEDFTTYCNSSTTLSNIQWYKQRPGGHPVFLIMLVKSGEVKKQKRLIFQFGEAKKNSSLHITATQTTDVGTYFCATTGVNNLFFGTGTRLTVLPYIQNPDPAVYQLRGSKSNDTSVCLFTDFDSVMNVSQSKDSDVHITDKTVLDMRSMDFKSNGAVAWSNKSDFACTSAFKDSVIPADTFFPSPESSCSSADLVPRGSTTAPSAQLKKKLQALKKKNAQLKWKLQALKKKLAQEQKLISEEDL
T3 TCR beta: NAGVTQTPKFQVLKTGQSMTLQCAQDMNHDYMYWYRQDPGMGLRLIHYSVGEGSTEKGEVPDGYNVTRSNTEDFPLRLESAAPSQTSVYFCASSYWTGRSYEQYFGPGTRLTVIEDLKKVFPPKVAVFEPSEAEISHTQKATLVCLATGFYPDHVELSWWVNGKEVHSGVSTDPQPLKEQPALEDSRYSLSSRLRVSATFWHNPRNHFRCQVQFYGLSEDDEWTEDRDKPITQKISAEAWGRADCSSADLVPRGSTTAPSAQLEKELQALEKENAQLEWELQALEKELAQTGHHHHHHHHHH

[10] = target: T4, Cynomolgus TCR(AEA41865/AEA41866)-zipper protein (cynomolgus monkey); assay: ratio higher/lower kd on huTCR- and cyTCR-zipper (SPR)
T4 construct: also called cyTCR-zipper protein; cynoTCR zipper
Excerpt: (§1) Unique ISVD clones, i.e. clones with a unique sequence, were subsequently selected and screened to determine their off-rate. To this purpose, the ISVD containing periplasmic extracts were screened on huTCR-zipper and cyTCR-zipper protein by SPR on a ProteOn XPR36 instrument. The zipper proteins were immobilized on a GLC sensor chip (between 4300 and 5100RU) via amine coupling chemistry, using EDC/sulfo-NHS for activation of the carboxyl groups on the chip surface (running buffer: HBS-EP+, pH7.4). Periplasmic extracts were injected at 1/10 dilution for 2 min (at a flow rate of 45 μL/min) and dissociation was followed for 900 s. A pulse of 100 s of 3 M MgCl2 at 45 μL/min was used for regeneration. […] Processed sensorgrams were fitted with the Langmuir model (1:1 interaction) using ProteOn Manager 3.1.0 (Version 3.1.0.6) software.
T4 TCR alpha: T3 TCR alpha
T4 TCR beta: T3 TCR beta

[11] = target: T1, Human T cell receptor on human primary …; assay: flow cytometry, human primary T cells
[12] = target: T3, Cynomolgus …; assay: higher koff divided by lower koff, humanTCR zipper vs cynoTCR zipper (SPR)
[13] = target: T4, Cynomolgus …; assay: SPR ProteOn off-rate screen
Excerpt: as §1
Wherever % Lysis, T cell mediated MOLM-13 cell killing, cynomolgus primary T cells, E:T 10:1 is given: test concentration or dose not given here.
Wherever % Lysis, T cell mediated MOLM-13 cell killing, human primary T cells, E:T 10:1 is given: test concentration or dose not given here.

B1: T017000128 (bispecific antibody)
chain: DVQLVESGGGLVQPGGSLRLSCVASGDVHKINFLGWYRQAPGKEREKVAHISIGDQTDYADSAKGRFTISRDESKNMVYLQMNSLKPEDTAVYFCRAFSRIYPYDYWGQGTLVTVSSGGGGSGGGGSGGGGSGGGGSGGGGSGGGGSGGGGSEVQLVESGGGLVQAGGSLRLSCAASGITSKINDMGWYRQTPGNYREWVASITATGTTNYRDSVKGRFTISRDNAKSTVYLQMNSLKPEDTTVYYCNTFPPISNFWGQGTLVTVSSA
IC50 (M), xCELLigence CHO Flp-In huCD123 cell killing, Human T cell mediated killing [1]: 1.4e-11 M
IC50 (M), xCELLigence CHO Flp-In huCD123 cell killing, Cynomolgus T cell mediated killing [2]: 1.9e-11 M
% Lysis, T cell mediated MOLM-13 cell killing, cynomolgus primary T cells, E:T 10:1 [3]: 37%
EC50 (M), T cell mediated MOLM-13 cell killing, cynomolgus primary T cells, E:T 10:1 [3]: 1.7e-10 M
% Lysis, T cell mediated MOLM-13 cell killing, human primary T cells, E:T 10:1 [4]: 32%
EC50 (M), T cell mediated MOLM-13 cell killing, human primary T cells, E:T 10:1 [4]: 2.3e-10 M
% lysis, KG-1a, Human T cell mediated killing [5]: 51%
EC50 (M), KG-1a, Human T cell mediated killing [5]: 1.3e-09 M
% lysis, KG-1a, Cynomolgus T cell mediated killing [6]: 61%
EC50 (M), KG-1a, Cynomolgus T cell mediated killing [6]: 6.7e-10 M
% lysis, MOLM-13, Human T cell mediated killing [7]: 24%
EC50 (M), MOLM-13, Human T cell mediated killing [7]: 3e-10 M
% lysis, MOLM-13, Cynomolgus T cell mediated killing [8]: 37%
EC50 (M), MOLM-13, Cynomolgus T cell mediated killing [8]: 4.1e-10 M

Kd [9]: 29 nM
B2: T017000636 (bispecific antibody)
chain: B1 chain with L11V, G26W, K30Q, L34Y, M77T, K86R, V92L, F94Y, F98L, Y102W
% Lysis, T cell mediated MOLM-13 cell killing, cynomolgus primary T cells, E:T 10:1 [3]: 20%
EC50 (M), T cell mediated MOLM-13 cell killing, cynomolgus primary T cells, E:T 10:1 [3]: 6.7e-11 M
% Lysis, T cell mediated MOLM-13 cell killing, human primary T cells, E:T 10:1 [4]: 36%
EC50 (M), T cell mediated MOLM-13 cell killing, human primary T cells, E:T 10:1 [4]: 6.6e-11 M

Kd [9]: 5.2 nM
B3: T017000627 (bispecific antibody)
chain: B1 chain with L11V, G26W, L34Y, M77T, K86R, V92L, F94Y, F98L, R100K, Y102W
% Lysis, T cell mediated MOLM-13 cell killing, cynomolgus primary T cells, E:T 10:1 [3]: 19%
EC50 (M), T cell mediated MOLM-13 cell killing, cynomolgus primary T cells, E:T 10:1 [3]: 3.8e-11 M
% Lysis, T cell mediated MOLM-13 cell killing, human primary T cells, E:T 10:1 [4]: 36%
EC50 (M), T cell mediated MOLM-13 cell killing, human primary T cells, E:T 10:1 [4]: 2.4e-10 M

Kd [9]: 5.5 nM
B4: T017000642 (bispecific antibody)
chain: DVQLVESGGGVVQPGGSLRLSCVASWDVHKINFYTWYRQAPGKEREKVAHISIGDQTDYADSAKGRFTISRDESKNTVYLQMNSLRPEDTALYYCRALSKIWPYDYWGQGTLVTVSSGGGGSGGGGSGGGGSGGGGSGGGGSGGGGSGGGGSEVQLVESGGGLVQAGGSLRLSCAASGITSKINDMGWYRQTPGNYREWVASITATGTTNYRDSVKGRFTISRDNAKSTVYLQMNSLKPEDTTVYYCNTFPPISNFWGQGTLVTVSSA
% Lysis, T cell mediated MOLM-13 cell killing, cynomolgus primary T cells, E:T 10:1 [3]: 37%
EC50 (M), T cell mediated MOLM-13 cell killing, cynomolgus primary T cells, E:T 10:1 [3]: 4e-11 M
% Lysis, T cell mediated MOLM-13 cell killing, human primary T cells, E:T 10:1 [4]: 32%
EC50 (M), T cell mediated MOLM-13 cell killing, human primary T cells, E:T 10:1 [4]: 3e-10 M

Kd [9]: 44 nM
B5: T017000639 (bispecific antibody)
chain: B4 chain with K100R
% Lysis, T cell mediated MOLM-13 cell killing, cynomolgus primary T cells, E:T 10:1 [3]: 28%
EC50 (M), T cell mediated MOLM-13 cell killing, cynomolgus primary T cells, E:T 10:1 [3]: 4.1e-11 M
% Lysis, T cell mediated MOLM-13 cell killing, human primary T cells, E:T 10:1 [4]: 42%
EC50 (M), T cell mediated MOLM-13 cell killing, human primary T cells, E:T 10:1 [4]: 3.6e-11 M

Kd [9]: 1600 nM
B6: T017000131 (bispecific antibody)
chain: DVQLVESGGGLVQAGGSLRLSCAASGITSKINDMGWYRQTPGNYREWVASITATGTTNYRDSVKGRFTISRDNAKSTVYLQMNSLKPEDTTVYYCNTFPPISNFWGQGTLVTVSSGGGGSGGGGSGGGGSGGGGSGGGGSGGGGSGGGGSEVQLVESGGGLVQPGGSLRLSCVASGDVHKINFLGWYRQAPGKEREKVAHISIGDQTDYADSAKGRFTISRDESKNMVYLQMNSLKPEDTAVYFCRAFSRIYPYDYWGQGTLVTVSSA
notes: also called A0110056A10(E1D)-35GS-T0170056G05-A
IC50 (M), xCELLigence CHO Flp-In huCD123 cell killing, Human T cell mediated killing [1]: 3.4e-11 M
IC50 (M), xCELLigence CHO Flp-In huCD123 cell killing, Cynomolgus T cell mediated killing [2]: 8.1e-11 M
% Lysis, T cell mediated MOLM-13 cell killing, cynomolgus primary T cells, E:T 10:1 [3]: 14%
EC50 (M), T cell mediated MOLM-13 cell killing, cynomolgus primary T cells, E:T 10:1 [3]: 9e-10 M
% Lysis, T cell mediated MOLM-13 cell killing, human primary T cells, E:T 10:1 [4]: 20%
EC50 (M), T cell mediated MOLM-13 cell killing, human primary T cells, E:T 10:1 [4]: 1.3e-09 M
% lysis, KG-1a, Human T cell mediated killing [5]: 29%
EC50 (M), KG-1a, Human T cell mediated killing [5]: 2.4e-09 M
% lysis, KG-1a, Cynomolgus T cell mediated killing [6]: 14%
EC50 (M), KG-1a, Cynomolgus T cell mediated killing [6]: 1.6e-09 M
% lysis, MOLM-13, Human T cell mediated killing [7]: 20%
% lysis, MOLM-13, Cynomolgus T cell mediated killing [8]: 14%
EC50 (M), MOLM-13, Cynomolgus T cell mediated killing [8]: 8.9e-10 M

gap in off-rate human vs cyno [10]: 7.5 fold
B7: T017000141 (VHH, not shown: small tags and cut ends)
VHH: EVQLVESGGGVVQPGGSLRLSCVASGDVHKINFLGWYRQAPGKEREKVAHISIGDQTDYADSAKGRFTISRDESKNMVYLQMNSLRPEDTALYFCRAFSRIYPYDYWGQGTLVTVSS
notes: also called T0170000141

EC50 [11]: 270 nM
Gap in off-rate human vs cyno [12]: 1.1 fold
B8: T017000641 (VHH, not shown: small tags and cut ends)
VHH: B7 VHH with G26W, L34Y, G35T, M77T, F94Y, F98L, R100K, Y102W

koff [13]: 0.00308 s⁻¹
gap in off-rate human vs cyno [10]: 9 fold
B9: T017000569 (VHH)
VHH: B7 VHH with I31L, F98M, Y102W

koff [13]: 0.000364 s⁻¹
gap in off-rate human vs cyno [10]: 1 fold
B10: T017000613 (VHH)
VHH: B7 VHH with G26W, L34Y, F98L, R100K, Y102W

EC50 [11]: 150 nM
Gap in off-rate human vs cyno [12]: > 61.1 fold
B11: T017000691 (VHH, not shown: small tags and cut ends)
VHH: B7 VHH with G26W, D27E, K30Q, L34Y, M77T, F94Y, F98L, Y102W

koff [13]: 0.00141 s⁻¹
gap in off-rate human vs cyno [10]: 8 fold
B12: T017000468 (VHH)
VHH: B7 VHH with D27S, L34Y, Y102W

EC50 [11]: 280 nM
Gap in off-rate human vs cyno [12]: 1 fold
B13: T017000623 (VHH, not shown: small tags and cut ends)
VHH: B7 VHH with G26W, L34Y, M77T, F94Y, F98L, R100K, Y102W

koff [13]: 0.000221 s⁻¹
gap in off-rate human vs cyno [10]: 3 fold
B14: T017000390 (VHH)
VHH: B7 VHH with G26W, K30Q, F98M, R100K, Y102W

koff [13]: 0.00216 s⁻¹
gap in off-rate human vs cyno [10]: 5 fold
B15: T017000383 (VHH)
VHH: B7 VHH with K30Q, F98M, Y102W

koff [13]: 0.00115 s⁻¹
gap in off-rate human vs cyno [10]: 8 fold
B16: T017000358 (VHH)
VHH: B7 VHH with D27A, I31L, F98M, Y102W

EC50 [11]: 70 nM
Gap in off-rate human vs cyno [12]: > 55.9 fold
B17: T017000635 (VHH, not shown: small tags and cut ends)
VHH: B7 VHH with G26W, K30Q, L34Y, M77T, F94Y, F98L, Y102W

koff [13]: 0.00087 s⁻¹
gap in off-rate human vs cyno [10]: 1.1 fold
B18: T017000615 (VHH)
VHH: B7 VHH with G26Y, L34Y, F98L, R100K, Y102W

EC50 [11]: 230 nM
Gap in off-rate human vs cyno [12]: 1 fold
B19: T017000625 (VHH, not shown: small tags and cut ends)
VHH: B7 VHH with G26Y, L34Y, M77T, F94Y, F98L, R100K, Y102W

koff [13]: 0.00055 s⁻¹
gap in off-rate human vs cyno [10]: 2 fold
B20: T017000602 (VHH)
VHH: B7 VHH with G26W, K30Q, R100K, Y102W
